Reference: patent publication US20140058068A1 (UNIVERSITY OF MIAMI, published 2014)
Square brackets hold non-standard residues; d marks the D form. Ends that are not written are not given here. * marks the point of attachment. Desaminotyrosyl = O=C(CCc1ccc(O)cc1)*; NMeY = CN[C@@H](Cc1ccc(O)cc1)C(=O)O; hArg = N=C(N)NCCCC[C@H](N)C(=O)O; Agmatine = N=C(N)NCCCCN*; NMeA = CN[C@@H](C)C(=O)O; Nle = CCCC[C@H](N)C(=O)O; Orn = NCCC[C@H](N)C(=O)O; dAbu = CC[C@@H](N)C(=O)O; Abu = CC[C@H](N)C(=O)O; GABA = NCCCC(=O)O

T1: GHRH receptor of human pituitary membrane homogenates (human, UniProt Q02643 23-423)
T1 construct: whole, on cells; Native receptor in pituitary membrane homogenates, not intact cells; also called hGH-RH receptor
T1 sequence (looked up): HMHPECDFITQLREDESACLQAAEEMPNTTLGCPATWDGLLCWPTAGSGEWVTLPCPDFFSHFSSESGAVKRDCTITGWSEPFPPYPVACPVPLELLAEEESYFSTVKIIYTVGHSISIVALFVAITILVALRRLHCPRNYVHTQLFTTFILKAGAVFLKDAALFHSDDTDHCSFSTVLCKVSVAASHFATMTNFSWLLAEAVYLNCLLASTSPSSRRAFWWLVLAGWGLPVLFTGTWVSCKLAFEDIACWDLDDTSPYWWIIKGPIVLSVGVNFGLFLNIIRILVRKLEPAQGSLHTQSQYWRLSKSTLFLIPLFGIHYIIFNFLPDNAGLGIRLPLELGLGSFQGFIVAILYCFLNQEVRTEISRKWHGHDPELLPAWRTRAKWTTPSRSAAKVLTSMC

B1: [N-Me-Tyr^1, Abu^2, Orn^12, Abu^15, Orn^21, Nle^27, Gab^30]hGH-RH(1-30)NH2 (peptide)
peptide: [NMeY][Abu]DAIFTNSYR[Orn]VL[Abu]QLSAR[Orn]LLQDI[Nle]SR[GABA]-NH2
modifications: N-terminus assumed
SMILES: CCCC[C@H](NC(=O)[C@@H](NC(=O)[C@H](CC(=O)O)NC(=O)[C@H](CCC(N)=O)NC(=O)[C@H](CC(C)C)NC(=O)[C@H](CC(C)C)NC(=O)[C@H](CCCN)NC(=O)[C@H](CCCNC(=N)N)NC(=O)[C@H](C)NC(=O)[C@H](CO)NC(=O)[C@H](CC(C)C)NC(=O)[C@H](CCC(N)=O)NC(=O)[C@H](CC)NC(=O)[C@H](CC(C)C)NC(=O)[C@@H](NC(=O)[C@H](CCCN)NC(=O)[C@H](CCCNC(=N)N)NC(=O)[C@H](Cc1ccc(O)cc1)NC(=O)[C@H](CO)NC(=O)[C@H](CC(N)=O)NC(=O)[C@@H](NC(=O)[C@H](Cc1ccccc1)NC(=O)[C@@H](NC(=O)[C@H](C)NC(=O)[C@H](CC(=O)O)NC(=O)[C@H](CC)NC(=O)[C@H](Cc1ccc(O)cc1)NC)[C@@H](C)CC)[C@@H](C)O)C(C)C)[C@@H](C)CC)C(=O)N[C@@H](CO)C(=O)N[C@@H](CCCNC(=N)N)C(=O)NCCCC(N)=O
notes: also called Peptide 25503
B2: [Dat^1, D-Ala^2, N-Me-Ala^8, Orn^12, Abu^15, Orn^21, Nle^27, Asp^28, Agm^29]hGH-RH(1-29) (peptide)
chain: [Desaminotyrosyl][dA]DAIFT[NMeA]SYR[Orn]VL[Abu]QLSAR[Orn]LLQDI[Nle]D[Agmatine]
SMILES: CCCC[C@H](NC(=O)[C@@H](NC(=O)[C@H](CC(=O)O)NC(=O)[C@H](CCC(N)=O)NC(=O)[C@H](CC(C)C)NC(=O)[C@H](CC(C)C)NC(=O)[C@H](CCCN)NC(=O)[C@H](CCCNC(=N)N)NC(=O)[C@H](C)NC(=O)[C@H](CO)NC(=O)[C@H](CC(C)C)NC(=O)[C@H](CCC(N)=O)NC(=O)[C@H](CC)NC(=O)[C@H](CC(C)C)NC(=O)[C@@H](NC(=O)[C@H](CCCN)NC(=O)[C@H](CCCNC(=N)N)NC(=O)[C@H](Cc1ccc(O)cc1)NC(=O)[C@H](CO)NC(=O)[C@H](C)N(C)C(=O)[C@@H](NC(=O)[C@H](Cc1ccccc1)NC(=O)[C@@H](NC(=O)[C@H](C)NC(=O)[C@H](CC(=O)O)NC(=O)[C@@H](C)NC(=O)CCc1ccc(O)cc1)[C@@H](C)CC)[C@@H](C)O)C(C)C)[C@@H](C)CC)C(=O)N[C@@H](CC(=O)O)C(=O)NCCCCNC(=N)N
B3: [Dat^1, D-Abu^2, Orn^12, Abu^15, Orn^21, Nle^27, Gab^30]hGH-RH(1-30)NH2 (peptide)
chain: [Desaminotyrosyl][dAbu]DAIFTNSYR[Orn]VL[Abu]QLSAR[Orn]LLQDI[Nle]SR[GABA]-NH2
SMILES: CCCC[C@H](NC(=O)[C@@H](NC(=O)[C@H](CC(=O)O)NC(=O)[C@H](CCC(N)=O)NC(=O)[C@H](CC(C)C)NC(=O)[C@H](CC(C)C)NC(=O)[C@H](CCCN)NC(=O)[C@H](CCCNC(=N)N)NC(=O)[C@H](C)NC(=O)[C@H](CO)NC(=O)[C@H](CC(C)C)NC(=O)[C@H](CCC(N)=O)NC(=O)[C@H](CC)NC(=O)[C@H](CC(C)C)NC(=O)[C@@H](NC(=O)[C@H](CCCN)NC(=O)[C@H](CCCNC(=N)N)NC(=O)[C@H](Cc1ccc(O)cc1)NC(=O)[C@H](CO)NC(=O)[C@H](CC(N)=O)NC(=O)[C@@H](NC(=O)[C@H](Cc1ccccc1)NC(=O)[C@@H](NC(=O)[C@H](C)NC(=O)[C@H](CC(=O)O)NC(=O)[C@@H](CC)NC(=O)CCc1ccc(O)cc1)[C@@H](C)CC)[C@@H](C)O)C(C)C)[C@@H](C)CC)C(=O)N[C@@H](CO)C(=O)N[C@@H](CCCNC(=N)N)C(=O)NCCCC(N)=O
B4: [Dat^1, D-Ala^2, Orn^12, Abu^15, Orn^21, Nle^27, Asp^28, Har^30]hGH-RH(1-30)NH2 (peptide)
chain: [Desaminotyrosyl][dA]DAIFTNSYR[Orn]VL[Abu]QLSAR[Orn]LLQDI[Nle]DR[hArg]-NH2
SMILES: CCCC[C@H](NC(=O)[C@@H](NC(=O)[C@H](CC(=O)O)NC(=O)[C@H](CCC(N)=O)NC(=O)[C@H](CC(C)C)NC(=O)[C@H](CC(C)C)NC(=O)[C@H](CCCN)NC(=O)[C@H](CCCNC(=N)N)NC(=O)[C@H](C)NC(=O)[C@H](CO)NC(=O)[C@H](CC(C)C)NC(=O)[C@H](CCC(N)=O)NC(=O)[C@H](CC)NC(=O)[C@H](CC(C)C)NC(=O)[C@@H](NC(=O)[C@H](CCCN)NC(=O)[C@H](CCCNC(=N)N)NC(=O)[C@H](Cc1ccc(O)cc1)NC(=O)[C@H](CO)NC(=O)[C@H](CC(N)=O)NC(=O)[C@@H](NC(=O)[C@H](Cc1ccccc1)NC(=O)[C@@H](NC(=O)[C@H](C)NC(=O)[C@H](CC(=O)O)NC(=O)[C@@H](C)NC(=O)CCc1ccc(O)cc1)[C@@H](C)CC)[C@@H](C)O)C(C)C)[C@@H](C)CC)C(=O)N[C@@H](CC(=O)O)C(=O)N[C@@H](CCCNC(=N)N)C(=O)N[C@@H](CCCCNC(=N)N)C(N)=O

Each molecule was assayed against T1, GHRH receptor of human pituitary … (assay: radioligand competition, 125I-JV-1-42 (~0.2 nM) as competitor, human pituitary membrane homogenates).
Source text: Normal human pituitaries were purchased from the National Hormone and Peptide Program (A. F. Parlow, Los Angeles, County Harbor-UCLA Medical Center, Torrance, Calif.).

IC50 | Relative affinity (Binding potency) vs JI-38 | Molecule
1.18 nM | 3.67 fold, JI-38 = 1 | B1
0.86 nM | 5.06 fold, JI-38 = 1 | B2
1.44 nM | 3.02 fold, JI-38 = 1 | B3

The molecules below were run against T1, GHRH receptor of human pituitary … (assay: radioligand competition, [His1,125I-Tyr10,Nle27]hGHRH(1-32)NH2 (0.2 nM) as competitor, human pituitary membrane homogenates).
Source text: Normal human pituitaries were purchased from the National Hormone and Peptide Program (A. F. Parlow, Los Angeles, County Harbor—UCLA Medical Center, Torrance, Calif.).

IC50 | Relative affinity (Binding potency) vs GHRH | Relative affinity (Binding potency) vs JI-38 | Molecule
0.14 nM | 42.3 fold, GHRH(1-29) = 1 | 13.9 fold, JI-38 = 1 | B4

What follows are molecules tested against GHRH receptor of human pituitary membrane homogenates (human) (UniProt Q02643) (assay: radioligand competition, 125I-JV-1-42 (~0.2 nM) as competitor, human pituitary membrane homogenates).

IC50 | Relative affinity (Binding potency) vs JI-38 (fold, JI-38 = 1) | Molecule
1.7 nM | 2.56 | [N-Me-Tyr^1, D-Ala^2, Orn^12, Abu^15, Orn^21, Nle^27, Asp^28, Agm^29]hGH-RH(1-29) (from UniProt P01286 32-60) (peptide)
0.16 nM | 27.2 | [N-Me-Tyr^1, D-Ala^2, Gln^8, Orn^12, Abu^15, Orn^21, Nle^27, Asp^28]hGH-RH(1-29)NH-CH3 (from UniProt P01286 32-60) (peptide)
1.07 nM | 4.07 | [N-Me-Tyr^1, D-Ala^2, Orn^12, Abu^15, Orn^21, Nle^27, Gab^30]hGH-RH(1-30)NH2 (from UniProt P01286 32-61) (peptide)
0.55 nM | 7.91 | [Dat^1, D-Ala^2, Gln^8, Orn^12, Abu^15, Orn^21, Nle^27, Asp^28]hGH-RH(1-29)NH-CH3 (from UniProt P01286 32-60) (peptide)
3.05 nM | 1.43 | [N-Me-Tyr^1, D-Ala^2, Fpa5^6, Orn^12, Abu^15, Orn^21, Nle^27, Asp^28, Agm^29]hGH-RH(1-29) (from UniProt P01286 32-60) (peptide)
2.74 nM | 1.59 | [Dat^1, D-Ala^2, Gln^8, Orn^12, Abu^15, Orn^21, Nle^27, Asp^28, D-Arg^29]hGH-RH(1-29)NH-CH3 (from UniProt P01286 32-60) (peptide)
0.71 nM | 6.12 | [N-Me-Tyr^1, D-Ala^2, Gln^8, Orn^12, Abu^15, Orn^21, Nle^27, Asp^28, Apa^30]hGH-RH(1-30)NH2 (from UniProt P01286 32-61) (peptide)
3.44 nM | 1.26 | [Ac-N-Me-Tyr^1, D-Ala^2, Gln^8, Orn^12, Abu^15, Orn^21, Nle^27, Asp^28, Agm^29]hGH-RH(1-29) (from UniProt P01286 32-60) (peptide)
1.06 nM | 4.1 | [N-Me-Tyr^1, D-Ala^2, Orn^12, Abu^15, Orn^21, Nle^27, Asp^28]hGH-RH(1-29)NH-CH3 (from UniProt P01286 32-60) (peptide)
0.87 nM | 5 | [N-Me-Tyr^1, D-Ala^2, Fpa5^6, Orn^12, Abu^15, Orn^21, Nle^27, Asp^28]hGH-RH(1-29)NH-CH3 (from UniProt P01286 32-60) (peptide)
1.47 nM | 2.96 | [N-Me-Tyr^1, D-Ala^2, Orn^12, Abu^15, Orn^21, Nle^27, Asp^28]hGH-RH(1-29)NH-CH2-CH3 (from UniProt P01286 32-60) (peptide)
1.56 nM | 2.79 | [N-Me-Tyr^1, D-Ala^2, Fpa5^6, Orn^12, Abu^15, Orn^21, Nle^27, Gab^30]hGH-RH(1-30)NH-CH3 (from UniProt P01286 32-61) (peptide)
0.82 nM | 5.3 | [N-Me-Tyr^1, D-Ala^2, Gln^8, Orn^12, Abu^15, Orn^21, Nle^27, Asp^28, Agm^29]hGH-RH(1-29) (from UniProt P01286 32-60) (peptide)
